The record followed here is publication PMC10761072, “Post-transcriptional capping generates coenzyme A-linked RNA” (RNA Biology, 2023).

As a reminder, the Km is the concentration of substrate that gives half-maximal velocity.

Substrate in the series: CC(C)(COP(=O)(O)O)[C@@H](O)C(=O)NCCC(=O)NCCS
Put plainly: purified protein. It is filed as biochemical, Escherichia coli. As to conditions: 10 µM pppAGGAA RNA as acceptor, 500 nM PPAT, 5 mM MgCl2, pH 7.5, 37°C, pPant 10-200 µM.

B1: phosphopantetheine adenylyltransferase (PPAT, CoaD) (Escherichia coli K-12) (protein)
chain: MQKRAIYPGTFDPITNGHIDIVTRATQMFDHVILAIAASPSKKPMFTLEERVALAQQATAHLGNVEVVGFSDLMANFARNQHATVLIRGLRAVADFEYEMQLAHMNRHLMPELESVFLMPSKEWSFISSSLVKEVARHQGDVTHFLPENVHQALMAKLA
notes: recombinant full-length enzyme expressed from coaD plasmid and purified; hexamer
In the case of B1, the Michaelis-Menten constant (Km) was found to be 14 µM.
